Experimental data as given in patent publication US20240270826A1 (NATIONAL RESEARCH COUNCIL OF CANADA, published 2024).
Like-named read-outs stand apart in the source and are kept apart here.

B1: NRCoV2-S2G3 VHH-Fc (Fc fusion)
chain: QVQLVQSGGGSVQAGGSLRLSCAASGSTFGIFLMGWRRQAPGKQRELVAHITSGGATNYADSVKGRFTISRDNAKNTVYLQMNSLEPEDTAVYYCYTTKRDDASVYWGQGTQVTVSS
notes: bivalent VHH-Fc
B2: NRCoV2-S2G4 VHH-Fc (Fc fusion)
chain: QVQLVQSGGGLVQAGGSLTLSCAPSGSTFSGYATNWYRQAPGKQRELVATISSDGDKNYADSVKGRFTISRDNAKNTVYLQMNSLKPEDTAVYYCNKHWWTGDWWGQGTQVTVSS
notes: bivalent VHH-Fc
B3: NRCoV2-S2F3 VHH-Fc (Fc fusion)
chain: EVQLVQSGGGLVQAGGSLRLSCATSVRILSVPAMGWYRQAPGKEREMVAVITSGGSTNYADSVKGRFTISRDNAKNTVYLQMNSLKLEDTAVYQCNLRDILSQPFWGQGTQVTVSS
notes: bivalent VHH-Fc
B4: NRCoV2-S2B3 VHH-Fc (Fc fusion)
chain: QVQLVDSGGGLVQAGGSLRLSCAASASTFGDSAMGYYRQAPGKQRELVATISTGSNTNYADSVKGRFTISRDDAKNTVYLQMNSLKPEDTAVYYCNYRSIYYGQNFWGQGTQVTVSS
notes: bivalent VHH-Fc
B5: NRCoV2-MRed19 VHH-Fc (Fc fusion)
chain: EVQLVESGGGLVQPGGSLRLSCAASTIIFKGQTMGWFRQAPGNERELVATMTTSGSANYADSVKGRFTISRDNEKTVTLQMNSLKPEDTALYYCYMHSVYYGIDYWGKGTQVTVSS
notes: bivalent VHH-Fc
B6: NRCoV2-MRed06 VHH-Fc (Fc fusion)
chain: EVQLVESGGGLVQAGGSLRLSCAASGFTLAYYAIGWFRQAPGKEREGVSCISSSDGSAHYADSVKGRFTISRDNAKNTVSLQMNSLKPEDTAVYYCATDSFSSCSDYESGMDFWGKGTQVTVSS
notes: bivalent
B7: NRCoV2-MRed22 VHH-Fc (Fc fusion)
chain: EVQLVESGGGLVQPGGSLRLSCAASGSVFASNAMGWYRQAPGKQRELVATISSRGSTNYADSVKGRFTISRDNAKNTVYLQMNSLGPEDTAVYYCNAREFTGFDYWGQGTQVTVSS
notes: bivalent VHH-Fc
B8: NRCoV2-03 VHH-Fc (Fc fusion)
chain: EVQLVSSGGGLVQAGGSLRLSCTASGITFSYYAMGWYRQAPGQPRELVASMSNMDSTIYADSVKGRFTISRDNAKTTIYLQMNNLKPEDTAVYFCNIYGPTYSTRRNEYWGQGTQVTVSS
notes: bivalent VHH-Fc
B9: NRCoV2-S2A4 VHH-Fc (Fc fusion)
chain: QVQLVQSGGGLVQAGGSLRLSCAVSGSPFRSNVMEWYRQAPGKQRELVASISTGGSRTYTDSVKGRFTISRDNAKNEAFLQMNSLKPEDTAVYYCHAAARDSHGIYLLDTWGQGTQVTVSS
notes: bivalent VHH-Fc
B10: NRCoV2-SR02 VHH-Fc (Fc fusion)
chain: EVQLVDSGGGLVQAGGSLRLSCTASEFTLNYYSIGWFRQSPGKEREGVSCIRYSGGGIDYADSVKGRFTISRDNAKNTVYLTMNSLKPEDTAVYYCAADRLYSRACPTAGGRNYWGQGTQVTVSS
notes: bivalent
B11: NRCoV2-SR01 VHH-Fc (Fc fusion)
chain: EVQLVQSGGGSVQAGGSLRLSCVASGFTFDNYAIGWFRQAPGKEREGVSCISGNGGVTIYADSVKGRFTISRDNAKNLVYLQMNSLKPEDTAVYYCAATGIRSTWSVYGCSRLAGPYDYWGQGTQVTVSS
notes: bivalent
B12: NRCoV2-MRed18 VHH-Fc (Fc fusion)
chain: EVQLVESGGGLVQPGGSLRLSCAASTTVFGRNAMGWYRQAPGKERELVATVSDGGTPNYADSVKGRFTISRDNAKNTIYLQMNSLEPEDTAVYYCNYYNYYYGRNFWGQGTQVTVSS
notes: bivalent VHH-Fc
B13: NRCoV2-MRed07 VHH-Fc (Fc fusion)
chain: EVQLVESGGGLVQPGGSLTLSCAASGSIGPFNTMGWYRQAPGNQREPAAIITRGGVTNYADSVKGRFTISRDNAKNAVYLQMDSLKPDDTAVYYCYANYGWAIPYWGNGTQVTVSS
notes: bivalent
B14: NRCoV2-15 VHH-Fc (Fc fusion)
chain: EVQLVSSGGGLVEAGGSLRLSCIASGSTSGRNTMGWFRQAPGKQREWVAIVSTSGATNYAGSVKGRFTLSRDNAKNAVYLQMNNLKPEDTAVYYCYAAYGGGGDYWGQGTQVTVSS
notes: bivalent VHH-Fc
B15: NRCoV2-SR04 VHH-Fc (Fc fusion)
chain: QVQLVESGGGLVQAGGSLRLSCAASGRTFSSHTVGWYRQAPGKQRDLVAAISMGGNTNYADYADSVKGRFTISRDNAKNTLYLQMNSLKPEDTAVYYCNTAALVGNRLLPMATITWGQGTQVTVSS
notes: bivalent VHH-Fc
B16: NRCoV2-SR04 VHH-Fc (Fc fusion)
chain: QVQLVESGGGLVQAGGSLRLSCAASGRTFSSHTVGWYRQAPGKQRDLVAAISMGGNTNYADYADSVKGRFTISRDNAKNTLYLQMNSLKPEDTAVYYCNTAALVGNRLLPMATITWGQGTQVTVSS
notes: bivalent
B17: NRCoV2-MRed20 VHH-Fc (Fc fusion)
chain: EVQLVESGGGSVQAGGSLRLSCAASGLSFSSYDMGWFRQAPGKEREFVAAIRESGSGTYYADSVKGRFTISRDNAKNTVYLQVSSLKPEDTAVYTCAAKPPFYGSGTYSTPRAYLYWGQGTQVTVSS
notes: bivalent VHH-Fc
B18: NRCoV2-SR16 VHH-Fc (Fc fusion)
chain: QVQLVQSAGGLVQAGGSLRLSCVVSGTTFSRYHMGWHRQAPGKQRDFVAGISTSGAVTYADSAKGRFTISRDNAKNTVYLEMNSLKLEDTALYYCNTGGWDYRSSTFIMGLNWGQGTQVTVSS
notes: bivalent
B19: NRCoV2-SR13 VHH-Fc (Fc fusion)
chain: EVQLVESGGGLVTTGGSLRLSCATSGSRFGSKHMAWYRQAPGKQRDLVAAISSGGSTHYGSSVKGRFTISRDNAKSTVYLQMNSLNPEDTAVFYCNMGGWDYRSNTYIPGSRSDYWGQGTQVTVSS
notes: bivalent
B20: NRCoV2-SR03 VHH-Fc (Fc fusion)
chain: AVQLVDSGGGLVQAGGSLRLSCAASGSIFSNNHMGWYRQAPGKQRELVAAISSGGKTNYADFAKGRFTISRDNAKNMVYLQMNSLKPEDTAVYYCNRGGWEYRSSYYIMGPHWGQGTQVTVSS
notes: bivalent VHH-Fc
B21: NRCoV2-SR03 VHH-Fc (Fc fusion)
chain: AVQLVDSGGGLVQAGGSLRLSCAASGSIFSNNHMGWYRQAPGKQRELVAAISSGGKTNYADFAKGRFTISRDNAKNMVYLQMNSLKPEDTAVYYCNRGGWEYRSSYYIMGPHWGQGTQVTVSS
notes: bivalent
B22: NRCoV2-MRed03 VHH-Fc (Fc fusion)
chain: EVQLVESGGGLVQPGGSLRLSCAAIGFTLDYYAIGWFRQAPGKEREGVSCISSSDGSTYYADSVKGRFTISRDNAKNTVYLQMNSLKPEDTAVYYCATDAFATCDSWYAQIAQYDFRGQGTQVTVSS
notes: bivalent
B23: NRCoV2-21 VHH-Fc (Fc fusion)
chain: EVQLVESGGGLVQPGGSLRLSCATSGFTLDYYAIGWFRQAPGKEREWVSCISSGGSTFYVDSVKGRFTISRDNAKDTVYLQMSSLKPDDTAVYYCAADHRGRSLRFGCSSSTTDYLYWGQGTQVTVSS
notes: bivalent VHH-Fc

Tests used:
[1] = molecular target: T1, SARS-CoV-2 S1 (aa16-685) (Wuhan) (SARS-CoV-2 Wuhan, UniProt P0DTC2 16-685); test: ELISA
T1 construct: NRC; FLAG, 6xHis tags

[2] = molecular target: T2, SARS-CoV-2 S1-NTD (aa16-305) (SARS-CoV-2 Wuhan, UniProt P0DTC2 16-305); test: ELISA
[3] = molecular target: T3, SARS-CoV-2 S on CHO-S cells (SARS-CoV-2, UniProt P0DTC2 14-1273); test: flow cytometry, CHO-S cells
T3 construct: whole, on cells

[4] = molecular target: T4, SARS-CoV spike (S) (SARS-CoV, UniProt P59594 14-1195); test: ELISA
[5] = molecular target: T5, SARS-CoV-2 spike trimer S (Wuhan, SmT1) (SARS-CoV-2 Wuhan); test: ELISA, coated antigen, apparent EC50
T5 construct: extracellular domain

[6] = molecular target: T1, SARS-CoV-2 S1 (aa16-685) (Wuhan); test: ELISA, coated antigen, apparent EC50
[7] = molecular target: T2, SARS-CoV-2 S1-NTD (aa16-305); test: ELISA, coated antigen, apparent EC50
[8] = molecular target: T4, SARS-CoV spike (S); test: ELISA; remark: listed apart in the source
[9] = molecular target: T6, SARS-CoV-2 S2 (aa686-1208) (Wuhan) (SARS-CoV-2 Wuhan, UniProt P0DTC2 686-1208); test: ELISA
T6 construct: NRC; FLAG, 6xHis tags

Binder | binding result [1] | binding result [2] | Bmax [3] | EC50 [3] [nM] | binding result [4] | EC50 [5] [nM] | EC50 [6] [nM] | EC50 [7] [nM] | binding result [8] | binding result [9]
B1 | no binding (tested: 13 nM) | no binding (tested: 13 nM) | 7530 | 0.3 | – | – | – | – | – | –
B2 | no binding (tested: 13 nM) | no binding (tested: 13 nM) | 6900 | 0.3 | – | – | – | – | – | –
B3 | no binding (tested: 13 nM) | no binding (tested: 13 nM) | 6950 | 2.7 | – | – | – | – | – | –
B4 | – | – | 6660 | 6.5 | no binding (tested: 13 nM) | – | – | – | – | –
B5 | no binding (tested: 13 nM) | no binding (tested: 13 nM) | 5480 | 1.3 | – | – | – | – | – | –
B6 | – | – | – | – | – | 0.4 | 0.59 | 0.4 | – | –
B7 | no binding (tested: 13 nM) | no binding (tested: 13 nM) | 5320 | 0.2 | – | – | – | – | no binding (tested: 13 nM) | –
B8 | – | no binding (tested: 13 nM) | 16200 | 78.9 | – | – | – | – | no binding (tested: 13 nM) | no binding (tested: 13 nM)
B9 | no binding (tested: 13 nM) | no binding (tested: 13 nM) | 6860 | 0.1 | – | – | – | – | – | –
B10 | – | – | – | – | – | 0.11 | 0.13 | 0.34 | – | –
B11 | – | – | – | – | – | 0.13 | 0.23 | 0.19 | – | –
B12 | no binding (tested: 13 nM) | no binding (tested: 13 nM) | 10200 | 0.9 | – | – | – | – | – | –
B13 | – | – | – | – | – | 1.2 | 1.5 | 0.8 | – | –
B14 | – | no binding (tested: 13 nM) | 21100 | 0.8 | no binding (tested: 13 nM) | – | – | – | – | no binding (tested: 13 nM)
B15 | – | – | 10100 | 8.2 | no binding (tested: 13 nM) | – | – | – | – | no binding (tested: 13 nM)
B16 | – | – | – | – | – | 0.2 | 0.25 | 0.17 | – | –
B17 | no binding (tested: 13 nM) | no binding (tested: 13 nM) | 6660 | 6.5 | – | – | – | – | – | –
B18 | – | – | – | – | – | 0.59 | 2.7 | 0.36 | – | –
B19 | – | – | – | – | – | 0.43 | 0.43 | 0.23 | – | –
B20 | – | – | 19900 | 7.1 | no binding (tested: 13 nM) | – | – | – | – | no binding (tested: 13 nM)
B21 | – | – | – | – | – | 0.16 | 0.2 | 0.17 | – | –
B22 | – | – | – | – | – | 0.2 | 0.48 | 0.7 | – | –
B23 | – | – | – | – | no binding (tested: 13 nM) | – | – | – | – | –
